pIC50: −log10 of the molar value. Read-outs that look alike come from different tables or passages of the source.
Columns and labels:
[1] = tested on: Trop-2+ human gastric carcinoma xenografts (NCI-N87); experiment: Effect of DAR on efficacy, NCI-N87 xenograft; type: in vivo, mouse; settings: for median survival time (MST): 2 treatments 7 days apart, 0.5 mg
Source text: Effect of DAR on pharmacokinetics and anti-tumor efficacy in mice.

[2] = Tolerability in Swiss-Webster mice; type: in vivo, mouse
gastric cancer = experiment: Case, stage IV metastatic gastric cancer
Calu-3 = experiment: In vitro cytotoxicity, Calu-3
Source text: (§1) Cell lines, antibodies, and chemotherapeutics—All human cancer cell lines used in this study were purchased from the American Type Culture Collection.

[3] = tested on: NCI-N87 human gastric tumor xenografts; experiment: Dose schedules and chronic dosing, NCI-N87 xenograft; type: in vivo, mouse
Source text: In Vivo Therapeutic Studies—NCr female athymic nude (nu/nu) mice, 4-8 weeks old, were purchased from Taconic Farms (Germantown, NY). NCI-N87 gastric tumor xenografts were established by harvesting cells from tissue culture and making a final cell suspension 1:1 in matrigel (BD Bioscience; San Jose, CA), with each mouse receiving a total of 1×10^7 cells s.c. in the right flank. For BxPC-3. xenografts of 1 g were harvested, and a tumor suspension made in HBSS to a concentration of 40% tumor w/v. This suspension was mixed 1:1 with matrigel for a final tumor suspension of 20% w/v. […] For IHC, tumors were allowed to grow to approximately 0.5 cm^3 before the mice were euthanized and the tumors removed, formalin-fixed and paraffin-embedded. For therapy studies, mice were randomized into treatment groups and therapy begun when tumor volumes were approximately 0.25 cm^3.
Mice were euthanized and deemed to have succumbed to disease once tumors grew to greater than 1.0 cm^3 in size. […] Time to progression (TTP) was determined as time post-therapy initiation when the tumor grew more than 20% in size from its nadir.
A similar dose schedule experiment was performed in mice bearing NCI-N87 human gastric tumor xenografts (not shown). […] Likewise, in terms of overall survival, while all three dose schedules provided a significant survival benefit when compared to untreated control (P<0.0001), there were no differences between any of these three different schedules.
In all, four treatment cycles were administered to the animals.

PC-3 = experiment: In vitro cytotoxicity, PC-3
Source text: as §1

[4] = tested on: diverse metastatic cancers
Method: To optimize cumulative treatment with minimal delays, phase II is focusing on 8 and 10 mg/kg (n=30 and 14, respectively).
Two ELISA methods were used to measure the clearance of the IgG (capture with anti-hRS7 idiotype antibody) and the intact conjugate (capture with anti-SN-38 IgG/probe with anti-hRS7 idiotype antibody). SN-38 was measured by HPLC.

[5] = esophageal cancer, 4 assessable patients

IMMU-132
median survival time (MST) ([1]; DAR 1.64): 21 days | median survival time (MST) ([1]; DAR 3.28 (printed 3.38)): 25 days | tumor growth inhibition (AUC) ([1]; DAR 6.89, 0.5 mg twice weekly for two weeks vs DAR 3.28, 1 mg): inhibited tumor growth significantly more than tumor-bearing animals treated with the 3.28 DAR conjugate | median survival time (MST) ([1]; DAR 6.89): 39 days | hematopoietic toxicity ([2]; 2 doses of 4, 8, 12 mg SN-38/kg): No hematopoietic toxicity occurred | tolerability, weight loss ([2]; 2 doses over 3 days, each of 4, 8, and 12 mg SN-38/kg): minimal transient weight loss | aspartate transaminase (AST) ([2]; mouse, in vivo): > 298 U/L | liver histology ([2]; mouse, in vivo): did not show histologic evidence of tissue damage | mice with slightly elevated glucose ([2]; mouse, in vivo): 5 of 7 | MTD, cumulative dose over 1 week ([2]; normal mice, no acute toxicity): > 24 mg/kg SN-38 | tolerability (gastric cancer; 10 mg/kg): some mild nausea and diarrhea | disease reduction from baseline by RECIST (gastric cancer; after another 5 courses): about 35% | pIC50 (Calu-3): 8.00 | TTP ([3]; 0.5 mg once a week for two weeks, one week off, four cycles): 15.7 ± 11.1 days | treatment-related toxicities ([3]; all dosing scheme evaluations, body weight): no treatment-related toxicities were observed | increase in median survival vs control ADC ([3]; chronic dosing): 3 fold | median survival ([3]; chronic dosing, four cycles): 63 days | pIC50 (PC-3): 8.37 | patients with long-term stable disease (metastatic PDC; 8/13 PDC patients): 62% | median TTP, CT assessable patients (metastatic PDC; 8.0 weeks estimated from last prior therapy): 12.7 wks | stable disease, number of patients (metastatic PDC; 13 assessable patients): 8 | response (metastatic PDC; case): stable disease by CT RECIST criteria | CA19-9 after treatment (metastatic PDC; case, from 15885 U/mL): 4418 U/mL | Alopecia (Grades 1-2), patients (metastatic PDC; in vivo): 5 of 9 | Grade 3-4 nausea or vomiting (metastatic PDC; in vivo): no patient | Phase 2 dose (metastatic PDC; in vivo): 8 to 10 mg/kg | median TTP, all 14 patients (metastatic PDC; in vivo): 11.9 wks | neutropenia ≥G3 (metastatic PDC; in vivo): 33% | patients with Grade 3 diarrhea (metastatic PDC; in vivo): Two | progressive disease by RECIST, patients (metastatic PDC; in vivo): Five | maximum decline in CA19-9 (metastatic PDC; person, 8 mg/kg days 1 and 8 of 21 day cycle): 72% | dose-limiting toxicity ([4]; 8, then 12 and 18 mg/kg, days 1 and 8 of 21-day cycles): dose-limiting neutropenia | median TTP in PDC patients ([4]; 8 wks for preceding last therapy): 11.9 wks | stable disease, PDC ([4]; 13 CT-assessable PDC patients): 62% | patients with long-term stable disease ([4]; 24 assessable patients, Phase I study): Over 80% | partial response (PR) ([4]; 48 assessable patients (excluding PDC), RECIST/CT): 15% | maximum reduction ([4]; CRC case, after 10 months of treatment): 65% | CEA after treatment ([4]; CRC case, from 781 ng/mL): 26.5 ng/mL | PD, number of patients ([4]; CRC, 18 assessable patients): 6 | PR, number of patients ([4]; CRC, 18 assessable patients): 1 | total response [PR+SD] ([4]; CRC, 18 assessable patients): 67% | PD, number of patients ([4]; NSCLC, 5 assessable patients): 1 | PR, number of patients ([4]; NSCLC, 5 assessable patients): 1 | total response [PR+SD] ([4]; NSCLC, 5 assessable patients): 80% | PD, number of patients ([4]; SCLC, 4 assessable patients): 2 | PR, number of patients ([4]; SCLC, 4 assessable patients): 2 | total response [PR+SD] ([4]; SCLC, 4 assessable patients): 50% | PD, number of patients ([4]; TNBC, 8 assessable patients): 2 | PR, number of patients ([4]; TNBC, 8 assessable patients): 2 | total response [PR+SD] ([4]; TNBC, 8 assessable patients): 75% | PD, number of patients ([4]; all 48 assessable patients): 14 | PR, number of patients ([4]; all 48 assessable patients): 7 | total response [PR+SD] ([4]; all 48 assessable patients): 79% | total response [PR+SD] ([4]; all 48 assessable patients, listed as hRS7-SN-38): 71% | PD, number of patients [4, 5]: 1 | PR, number of patients [4, 5]: 1 | total response [PR+SD] [4, 5]: 75% | time to clearance of conjugate from serum ([4]; human, in vivo): ≤ 3 days | Abdominal pain, Grade 3, number of patients ([4]; in vivo): 0 | Abdominal pain, Grade 4, number of patients ([4]; in vivo): 0 | Abdominal pain, TOTAL ([4]; in vivo): 11% | Alopecia, TOTAL ([4]; in vivo): 40% | Anemia, Grade 3 ([4]; in vivo): (4%) | Anemia, Grade 3, number of patients ([4]; in vivo): 2 | Anemia, Grade 4, number of patients ([4]; in vivo): 0 | Anemia, TOTAL ([4]; in vivo): 13% | Deep vein thrombosis, Grade 3 ([4]; in vivo): (2%) | Deep vein thrombosis, Grade 3, number of patients ([4]; in vivo): 1 | Deep vein thrombosis, Grade 4, number of patients ([4]; in vivo): 0 | Deep vein thrombosis, TOTAL ([4]; in vivo): 2% | Diarrhea, Grade 3 ([4]; in vivo): (9%) | Diarrhea, Grade 3, number of patients ([4]; in vivo): 4 | Diarrhea, Grade 4, number of patients ([4]; in vivo): 0 | Diarrhea, TOTAL ([4]; in vivo): 47% | Dysgeusia, Grade 3, number of patients ([4]; in vivo): 0 | Dysgeusia, Grade 4, number of patients ([4]; in vivo): 0 | Dysgeusia, TOTAL ([4]; in vivo): 15% | Fatigue, Grade 3 ([4]; in vivo): (9%) | Fatigue, Grade 3, number of patients ([4]; in vivo): 4 | Fatigue, Grade 4, number of patients ([4]; in vivo): 0 | Fatigue, TOTAL ([4]; in vivo): 55% | Hypokalemia, Grade 3 ([4]; in vivo): (2%) | Hypokalemia, Grade 3, number of patients ([4]; in vivo): 1 | Hypokalemia, Grade 4, number of patients ([4]; in vivo): 0 | Hypokalemia, TOTAL ([4]; in vivo): 11% | Nausea, Grade 3, number of patients ([4]; in vivo): 0 | Nausea, Grade 4, number of patients ([4]; in vivo): 0 | Nausea, TOTAL ([4]; in vivo): 53% | Neutropenia, Grade 3 ([4]; in vivo): (24%) | Neutropenia, Grade 3, number of patients ([4]; in vivo): 11 | Neutropenia, Grade 4, number of patients (%) ([4]; in vivo): 2 (4%) | Neutropenia, TOTAL ([4]; in vivo): 43% | Pyrexia, Grade 3, number of patients ([4]; in vivo): 0 | Pyrexia, Grade 4, number of patients ([4]; in vivo): 0 | Pyrexia, TOTAL ([4]; in vivo): 13% | SN-38 in the serum bound to the IgG ([4]; in vivo): > 95% | Vomiting, Grade 3 ([4]; in vivo): (2%) | Vomiting, Grade 3, number of patients ([4]; in vivo): 1 | Vomiting, Grade 4, number of patients ([4]; in vivo): 0 | Vomiting, TOTAL ([4]; in vivo): 32% | WBC Decrease, Grade 3 ([4]; in vivo): (2%) | WBC Decrease, Grade 3, number of patients ([4]; in vivo): 1 | WBC Decrease, Grade 4, number of patients ([4]; in vivo): 0 | WBC Decrease, TOTAL ([4]; in vivo): 6% | anti-hRS7 or anti-SN-38 antibodies ([4]; in vivo): No anti-hRS7 or anti-SN-38 antibodies were detected | anti-hRS7 or anti-SN-38 antibody response ([4]; in vivo): no anti-hRS7 or anti-SN-38 antibody response has been detected | clearance of intact conjugate vs IgG ([4]; in vivo): cleared more quickly than the IgG | diarrhea ≥G3 ([4]; in vivo): 9% | fatigue ≥G3 ([4]; in vivo): 9% | incidence of Grade 3 or higher, all other adverse events ([4]; in vivo): less than 10% | median time to progression (TTP), PDC ([4]; in vivo): 12.7 wks | nausea ≥G3 ([4]; in vivo): 0% | neutropenia Grade 4 ([4]; in vivo): 4% | neutropenia ≥Grade 3 ([4]; in vivo): 28% | vomiting ≥G3 ([4]; in vivo): 2% | reduction in target lesions, first CT ([4]; person, CRC, 8 mg/kg): 37% | primary target lesion size at first CT ([4]; person, NSCLC, 5.6 cm at start, after 6th dose): 3.2 cm | reduction in target lesions ([4]; person, SCLC, 12 mg/kg reduced to 6.8 mg/kg, after two months): 38% | TTP ([4]; remaining 48 patients): ≥ 12.6 wks
